Data reported in patent publication US20170107293A1 (BIOINVENT INTERNATIONAL, published 2017).
Numbering of substitutions follows the chain as printed.

Tests used:
[1] = target: T1, human FcγRIIA on cells (human, UniProt P12318 34-317); test: flow cytometry on human PBMC populations, MFI; monocytes and neutrophils read as hFcγRIIA-bearing as in the legend
T1 construct: whole, on cells; also called hFcγRIIA; FcγRIIA^+ve CHO
T1 sequence (looked up): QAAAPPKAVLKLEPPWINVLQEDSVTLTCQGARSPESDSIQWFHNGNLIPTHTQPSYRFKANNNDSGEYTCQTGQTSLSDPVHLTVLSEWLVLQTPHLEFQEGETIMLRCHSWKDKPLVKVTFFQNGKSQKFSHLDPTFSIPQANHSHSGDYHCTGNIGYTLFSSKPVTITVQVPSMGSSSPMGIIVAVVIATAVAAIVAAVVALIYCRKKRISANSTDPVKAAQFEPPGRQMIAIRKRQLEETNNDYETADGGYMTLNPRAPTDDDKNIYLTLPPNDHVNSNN

[2] = target: T2, human FcγRIIB on cells (human, UniProt P31994 43-310); test: flow cytometry, mAb at 0.1, 1 and 10 µg/ml on B cells, MFI
T2 construct: whole, on cells; also called hFcγRIIB; CD32B
T2 sequence (looked up): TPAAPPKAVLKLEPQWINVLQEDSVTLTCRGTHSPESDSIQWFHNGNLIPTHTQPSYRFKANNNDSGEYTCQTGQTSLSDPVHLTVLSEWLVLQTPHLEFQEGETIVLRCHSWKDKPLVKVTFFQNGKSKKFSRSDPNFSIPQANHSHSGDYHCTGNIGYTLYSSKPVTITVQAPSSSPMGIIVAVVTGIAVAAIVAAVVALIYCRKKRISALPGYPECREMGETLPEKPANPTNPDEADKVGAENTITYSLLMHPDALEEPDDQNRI

[3] = target: T3, Soluble hFcγRIIB (R & D Systems) (human, UniProt P31994 46-217); test: SPR (Biacore T100), mAb immobilised on CM5, soluble hFcγRIIB injected, 1:1 model; column headed KA (1/MS)
T3 construct: Bought reagent; also called hFcγRIIB fusion protein
T3 sequence (looked up): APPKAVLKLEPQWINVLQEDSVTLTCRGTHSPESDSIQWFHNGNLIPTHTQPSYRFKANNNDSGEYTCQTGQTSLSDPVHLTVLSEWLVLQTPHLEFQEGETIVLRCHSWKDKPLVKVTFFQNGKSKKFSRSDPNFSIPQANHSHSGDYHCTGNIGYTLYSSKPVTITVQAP
Method: (§1) A BIAcore T100 analyzer (GE Healthcare, UK) was used to determine the binding affinity of the hFcγRIIB mAb, as described elsewhere.²⁵ mAb were immobilized onto a CM5 sensorchip (GE Healthcare, UK), using standard amine coupling according to the manufacturer's instructions. Soluble hFcγRIIB (0.16-100 nM; R & D Systems, UK) was injected for 5 minutes and dissociation monitored for 10 minutes. Background binding to the control flow cell was monitored and subtracted automatically. The KD values were calculated from the 1:1 binding model using the BIAcore T100 Evaluation software.

[4] = target: T3, Soluble hFcγRIIB (R & D Systems); test: SPR (Biacore T100), mAb immobilised on CM5, soluble hFcγRIIB injected, 1:1 model
Method: as §1

[5] = target: T3, Soluble hFcγRIIB (R & D Systems); test: SPR (Biacore T100), mAb immobilised on CM5, soluble hFcγRIIB injected, 1:1 model; column headed KD (1/s)
Method: as §1

[6] = target: T3, Soluble hFcγRIIB (R & D Systems); test: SPR, mAb immobilised, soluble hFcγRIIB injected
Method: as §1

[7] = target: T3, Soluble hFcγRIIB (R & D Systems); test: SPR, mAb immobilised, soluble hFcγRIIB injected; column headed KA (1/MS)
Method: as §1

[8] = target: T3, Soluble hFcγRIIB (R & D Systems); test: SPR, mAb immobilised, soluble hFcγRIIB injected; column headed KD (1/s)
Method: as §1

[9] = target: T4, mouse FcγRIIB (mouse, UniProt P08101 30-330); test: IHC on frozen tissue sections
T4 construct: whole, on cells; also called mFcγRII; FcγRIIB in other species
T4 sequence (looked up): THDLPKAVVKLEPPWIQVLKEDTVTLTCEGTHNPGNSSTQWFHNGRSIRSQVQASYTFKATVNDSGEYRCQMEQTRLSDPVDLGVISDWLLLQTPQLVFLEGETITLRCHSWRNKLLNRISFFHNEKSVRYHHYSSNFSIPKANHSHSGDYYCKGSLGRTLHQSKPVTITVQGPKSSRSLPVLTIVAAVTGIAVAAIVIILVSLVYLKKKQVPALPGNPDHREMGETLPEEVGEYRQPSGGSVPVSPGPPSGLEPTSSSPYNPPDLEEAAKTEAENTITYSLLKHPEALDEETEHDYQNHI

[10] = target: T5, cynomolgus monkey FcγRIIB (cynomolgus monkey, UniProt A0A140HDP4 43-312); test: IHC on frozen tissue sections
T5 construct: whole, on cells; also called FcγRIIB in other species
T5 sequence: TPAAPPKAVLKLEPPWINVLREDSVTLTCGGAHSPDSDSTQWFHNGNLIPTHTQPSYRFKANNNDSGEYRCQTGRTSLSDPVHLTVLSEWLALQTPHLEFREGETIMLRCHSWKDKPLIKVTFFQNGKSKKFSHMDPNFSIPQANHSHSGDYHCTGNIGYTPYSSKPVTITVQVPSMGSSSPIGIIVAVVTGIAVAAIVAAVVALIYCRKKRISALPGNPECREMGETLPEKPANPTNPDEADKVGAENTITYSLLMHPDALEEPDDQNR

[11] = target: T6, rat FcγRIIB (rat, UniProt A0A0G2K9R6 42-295); test: IHC on frozen tissue sections
T6 construct: also called FcγRIIB in other species
T6 sequence: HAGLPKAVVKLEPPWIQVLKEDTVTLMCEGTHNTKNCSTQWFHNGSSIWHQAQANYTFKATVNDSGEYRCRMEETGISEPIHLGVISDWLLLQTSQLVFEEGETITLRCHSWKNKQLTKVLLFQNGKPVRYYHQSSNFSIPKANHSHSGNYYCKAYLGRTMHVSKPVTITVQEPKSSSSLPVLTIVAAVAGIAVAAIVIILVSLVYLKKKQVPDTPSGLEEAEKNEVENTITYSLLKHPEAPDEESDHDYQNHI

[12] = target: T1, human FcγRIIA on cells; test: binding to FcγRIIA-transfected CHO-k1 cells

B1: 6A09 (antibody, human IgG1, V domains shown)
VH: EVQLLESGGGLVQPGGSLRLSCAASGFTFSSYGMHWVRQAPGKGLEWVAVTSYDGNTKYYANSVKGRFTISRDNSKNTLYLQMNSLRAEDTAVYYCAREDCGGDCFDYWGQGTLVTVSS
VL: QSVLTQPPSASGTPGQRVTISCTGSSSNIGAGYDVHWYQQLPGTAPKLLIYGNSNRPSGVPDRFSGSKSGTSASLAISGLRSEDEADYYCAAWDDSLNEGVFGGGTKLTVLG
notes: hFcγRIIB mAb said to be likely dual-specific for hFcγRIIA and B; human IgG1 (WT); Only VH/VL tied to the clone; also called Antibody clone: 6A09
B1: binds [1].

B2: 1C04 (antibody, human IgG1, V domains shown)
VH: EVQLLESGGGLVQPGGSLRLSCAASGFTFSSYAMSWVRQAPGKGLEWVSSISDSGAGRYYADSVEGRFTISRDNSKNTLYLQMNSLRAEDTAVYYCARTHDSGELLDAFDIWGQGTLVTVSS
VL: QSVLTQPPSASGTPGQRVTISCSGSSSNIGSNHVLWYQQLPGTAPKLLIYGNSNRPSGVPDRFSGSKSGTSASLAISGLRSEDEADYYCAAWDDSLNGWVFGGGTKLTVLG
notes: Only VH/VL tied to the clone; also called Antibody clone: 1C04
B2: no binding (tested: 10 µg/ml) [2].

B3: 1E05 (antibody, human IgG1, V domains shown)
VH: EVQLLESGGGLVQPGGSLRLSCAASGFTFSTYAMNWVRQVPGKGLEWVAVISYDGSNKNYVDSVKGRFTISRDNSKNTLYLQMNSLRAEDTAVYYCARNFDNSGYAIPDAFDIWGQGTLVTVSS
VL: B1 VL with G52D, S54N, N55S, N98G, E99G, G100P
notes: Only VH/VL tied to the clone; also called Antibody clone: 1E05
B3: no binding (tested: 10 µg/ml) [2].

B4: 2A09 (antibody, human IgG1, V domains shown)
VH: EVQLLESGGGLVQPGGSLRLSCAASGFTFSNAWMSWVRQAPGKGLEWVAYISRDADITHYPASVKGRFTISRDNSKNTLYLQMNSLRAEDTAVYYCTTGFDYAGDDAFDIWGQGTLVTVSS
VL: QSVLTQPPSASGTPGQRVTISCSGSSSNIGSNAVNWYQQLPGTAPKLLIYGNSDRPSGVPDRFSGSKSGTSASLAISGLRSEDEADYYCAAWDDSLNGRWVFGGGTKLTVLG
notes: Only VH/VL tied to the clone; also called Antibody clone: 2A09
B4: no binding (tested: 10 µg/ml) [2].

B5: 7C07 (antibody, human IgG1, V domains shown)
VH: EVQLLESGGGLVQPGGSLRLSCAASGFTFSSYGMHWVRQAPGKGLEWVAVISYDGSNKYYADSVKGRFTISRDNSQNTLYLQMNSLRAEDTAVYYCAREFGYIILDYWGQGTLVTVSS
VL: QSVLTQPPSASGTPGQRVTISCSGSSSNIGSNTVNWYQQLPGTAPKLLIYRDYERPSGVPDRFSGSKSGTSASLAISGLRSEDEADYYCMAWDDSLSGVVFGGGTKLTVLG
notes: Antagonistic hFcγRIIB mAb, human IgG1 (WT); Only VH/VL tied to the clone; also called Antibody clone: 7C07
In the case of B5, the kon [3] is reported as 913000 M⁻¹ s⁻¹, the Kd [4] is reported as 23.9 nM and the koff [5] is reported as 0.0185 s⁻¹. For the same binder, the Kd [6] was 23.9 nM, the kon [7] was 913000 M⁻¹ s⁻¹ and the koff [8] was 0.0185 s⁻¹. B5: no binding [9]; no binding [10]; no binding [11].

B6: 6G08 (antibody, human IgG1, V domains shown)
VH: EVQLLESGGGLVQPGGSLRLSCAASGFTLSSYGISWVRQAPGKGLEWVSGISGSGGNTYYADSVKGRFTISRDNSKNTLYLQMNSLRAEDTAVYYCASSVGAYANDAFDIWGQGTLVTVSS
VL: B1 VL with N53D, S54T, E99G, G100P
notes: hFcγRIIB mAb (agonistic), human IgG1 (WT); Only VH/VL tied to the clone; also called Antibody clone: 6G08
B6 showed a kon [3] of 472000 M⁻¹ s⁻¹, a Kd [4] of 713 nM and a koff [5] of 0.337 s⁻¹. B6: no binding [12].

B7: 5E12 (antibody, human IgG1, V domains shown)
VH: EVQLLESGGGLVQPGGSLRLSCAASGFTFSSYGMHWVRQAPGKGLEWVAVISYDGINKDYADSMKGRFTISRDNSKNTLYLQMNSLRAEDTAVYYCARERKDAFDIWGQGTLVTVSS
VL: B1 VL with G52S, S54N, N55Q, A92T, E99G, G100L
notes: hFcγRIIB mAb, human IgG1 (WT); Only VH/VL tied to the clone; also called Antibody clone: 5E12
B7: no binding [12].

B8: 6C11 (antibody, human IgG1, V domains shown)
VH: EVQLLESGGGLVQPGGSLRLSCAASGFTFDDYGMSWVRQAPGKGLEWVSAISGSGSSTYYADSVKGRFTISRDNSKNTLYLQMNSLRAEDTAVYYCAGGDIDYFDYWGQGTLVTVSS
VL: B1 VL with I29F, G52E, S54N, N55K, E99G, G100P
notes: hFcγRIIB mAb, human IgG1 (WT); Only VH/VL tied to the clone; also called Antibody clone: 6C11
B8: no binding [12].

B9: 6C12 (antibody, human IgG1, V domains shown)
VH: B7 VH with I56S, D59Y, M64V, K101R
VL: QSVLTQPPSASGTPGQRVTISCTGSSSNIGAGYDVHWYQQLPGTAPKLLIYSDNQRPSGVPDRFSGSKSGTSASLAISGLRSEDEADYYCATWDSDTPVFGGGTKLTVLG
notes: hFcγRIIB mAb, human IgG1 (WT); Only VH/VL tied to the clone; also called Antibody clone: 6C12
B9: no binding [12].

B10: 6G03 (antibody, human IgG1, V domains shown)
VH: EVQLLESGGGLVQPGGSLRLSCAASGFTFGSYGMHWVRQAPGKGLEWVSGISWDSAIIDYAGSVKGRFTISRDNSKNTLYLQMNSLRAEDTAVYYCAKDEAAAGAFDIWGQGTLVTVSS
VL: QSVLTQPPSASGTPGQRVTISCTGSSSNIGAGYDVHWYQQLPGTAPKLLIYGNTDRPSGVPDRFSGSKSGTSASLAISGLRSEDEADYYCAAWDDSLSGPVVFGGGTKLTVLG
notes: hFcγRIIB mAb, human IgG1 (WT); Only VH/VL tied to the clone; also called Antibody clone: 6G03
B10: no binding [12].

B11: 4B02 (antibody, human IgG1, V domains shown)
VH: B7 VH with S31N, Y32H, I56T, D59Y, M64V, K65R, R100T, K101W, I106V
VL: QSVLTQPPSASGTPGQRVTISCSGSSSNIGSNNANWYQQLPGTAPKLLIYDNNKRPSGVPDRFSGSKSGTSASLAISGLRSEDEADYYCQAWDSSTVVFGGGTKLTVLG
notes: hFcγRIIB mAb, human IgG1 (WT); Only VH/VL tied to the clone; also called Antibody clone: 4B02
B11: no binding [12].

B12: 6H08 (antibody, human IgG1, V domains shown)
VH: B7 VH with S30N, S31N, I56S, D59Y, M64V, R72K, R100Y
VL: B11 VL with S23T, N33T, A34V, D93G, S94T, S95G, T96I, V97R
notes: hFcγRIIB mAb, human IgG1 (WT); Only VH/VL tied to the clone; also called Antibody clone: 6H08
B12: no binding [12].
